Assay results from patent US20250277029A1, “CANNABINOID TYPE 1 RECEPTOR BINDING PROTEINS AND USES THEREOF” (AMGEN INC., priority 2022, published 2025).

T1: XCR1-SMALP (Homo sapiens, UniProt P46094)
T1 sequence (P46094 1-333): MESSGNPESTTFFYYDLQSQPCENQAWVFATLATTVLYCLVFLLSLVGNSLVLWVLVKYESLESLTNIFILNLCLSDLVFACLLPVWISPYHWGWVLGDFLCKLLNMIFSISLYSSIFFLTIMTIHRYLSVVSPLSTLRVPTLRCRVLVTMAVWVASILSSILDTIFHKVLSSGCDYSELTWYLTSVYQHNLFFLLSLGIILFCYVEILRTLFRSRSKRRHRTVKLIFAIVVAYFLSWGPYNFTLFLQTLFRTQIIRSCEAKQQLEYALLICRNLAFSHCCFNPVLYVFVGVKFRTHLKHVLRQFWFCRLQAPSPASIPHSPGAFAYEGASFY


Experiments:
CB1-nanodisc = assay: Octet affinity assay with CB1-nanodisc; format: binding, human; details: 1:1 Langmuir model
Experimental: Affinity assay using Octet. The Octet@HTX (Sartorius, Germany) instrument was used to determine affinities of anti-CB1 antibodies. Prior to experiment, Streptavidin (SA) biosensors (ForteBio, #18-5021) were pre-hydrated for 10 min in Octet assay buffer containing 10 mM Tris (Fisher, #BP152-1), 150 mM NaCl (Fisher, #5271-10), 1 mM CaCl2) (Fisher, #BP510-500), 0.1 mg/mL BSA (BioShop, #ALB001.1), and 0.1% Triton-X 100 (Calbiochem, #9410-OP), pH7.4. SA biosensors were loaded with biotinylated anti-human Fc antibody (Invitrogen, #A18827) followed by one baseline step of 60 s in Octet assay buffer. Anti-CB1 antibodies were prepared in Octet assay buffer and captured by the anti-human Fc antibody prior to being submerged in wells containing different concentrations of CB1-nanodisc (#CB1-008, in-house) for 5 min, followed by 10 min dissociation. […] SA biosensors were used once without regeneration. For data evaluation, ForteBio Data Analysis v11.0 software was used. The kinetic rate constants, association rate constant (ka, M−1s−1), dissociation rate constant (kd, s−1), and the equilibrium rate constant (KD, M) were determined by using a 1:1 Langmuir model.

XCR1-SMALP = molecular target: T1, XCR1-SMALP; assay: Yeast-display non-specific binding to irrelevant XCR1-SMALP; details: after background subtraction; for 25 nM XCR1-SMALP-GFP, relative binding fold change: fold change compared to LIBC528116 (Fab); for 50 nM XCR1 SMALP, relative binding fold change: fold change compared to LIBC523797-1(Fab)
Source text: All eighteen cognate variants met the stringent binding improvement threshold against huCB1I-GFP-SMALP and had minimal binding to irrelevant XCR1-SMALP and empty-ND (Table 32). […] For LIBC674043-1 and LIBC674200-1, VH R149S and VL G76D germline reversion mutations were also included in the panel of IgG1 SEFL2 mAbs produced for functional testing.

[1] = test system: diet-induced obese (DIO) huCB1 knock in (KI) mice; assay: Diet-induced obese huCB1 knock in mice, 30 mg/kg QW for 35 days: body weight, food intake, fat mass, liver weight; format: in vivo, mouse; details: YTE format
Experimental: The further affinity matured antibodies LIBC673952 (52777) and LIBC680574 (52778) in YTE format (Dall'Acqua et al., The Journal of Immunology, 169: 5171-5180 (2002)) was scaled up for testing in diet-induced obese (DIO) transgenic mice with huCB1 knocked in. […] The antibodies (52777, 52778, and 37940) and a control antibody (huIgG control) were administered to the mice at 30 mg/kg QW for 35 days, and the body weight and food intake of the animals were measured every 3-4 days and the results are shown in FIGS. 10A and 10B.

Row | Molecule | Octet (nanodisc) k off (CB1-nanodisc) | Octet (nanodisc) k on (CB1-nanodisc) | 25 nM XCR1-SMALP-GFP, relative binding fold change (XCR1-SMALP) | 50 nM XCR1 SMALP, relative binding fold change (XCR1-SMALP) | further results
1 | LIBC527997-1: LC-swapped affinity-matured 10D10 variant; HV SEQ ID NO: 226, LV SEQ ID NO: 225 (antibody, V domains shown) VH: QVQLQESGPGLVKPSQTLSLTCTVSGGSIRRGGDYWAWIRQHPGKGLEWIGHIYQTGSTNYNPRFKGRATISVNTYKNQFSLKLSSVTAADTAVYYCARNYDTLTGYSYYYYGMDVWGQGTTVTVSS VL: DIQMTQSPSSLSASVGDRVTITCRASQSISNYLNWYQQKPGKAPKLLIYAASSLHSGVPSRFSGSGSGTDFTLTISSLQPEDFASYYCQQYQSYPLTFGQGTKVEIKR | 0.00136 s⁻¹ | 51800 M⁻¹ s⁻¹ | – | – | –
2 | LIBC680562-1: further VK1 LC-optimized affinity-matured variant (antibody, V domains shown) VH: QVQLQESGPGLVKPSQTLSLTCTVSGGSIRRGGDYWAWIRQHPGKGLEWIGHIYQTGSTNYNPRFKGRATISVNTYKNQFSLKLSSVTAADTAVYYCARNYDTLTGYSYYYYGMDVWGQGTTVTVSS VL: DIQMTQSPSSLSASVGDRVTITCRASQSISSYLNWYQQKPGKAPKLLIYSARRLSSGVPSRFSGSGSGTDFTLTISSLQPEDFATYYCQQYAKSPITFGGGTKVEIKR | – | – | 0.64 | – | –
3 | LIBC680800-1: further VK1 LC-optimized affinity-matured variant (antibody, V domains shown) VH: QVQLQESGPGLVKPSQTLSLTCTVSGGSIRRGGDYWAWIRQHPGKGLEWIGHIYQTGSTNYNPRFKGRATISVNTYKNQFSLKLSSVTAADTAVYYCARNYDTLTGYSYYYYGMDVWGQGTTVTVSS VL: DIQMTQSPSSLSASVGDRVTITCRASQSISSYLNWYQQKPGKAPKLLIYSARALSSGVPSRFSGSGSGTDFTLTISSLQPEDFATYYCQQYRKFPLTFGGGTKVEIKR | – | – | 0.47 | – | –
4 | LIBC527919-1: LC-swapped affinity-matured 10D10 variant; HV SEQ ID NO: 252, LV SEQ ID NO: 251 (antibody, V domains shown) VH: QVQLQESGPGLVKPSQTLSLTCTVSGGSIRRGGDYWAWIRQHPGKGLEWIGHVYQTGSTAYNPNFKDRATISVNTYKNQFSLKLSSVTAADTAVYYCARNYDALSGYSYYYYGMDVWGQGTTVTVSS VL: DIQLTQSPSSLSASVGDRVTITCRASQSIISYLNWYQQKPGKAPKLLIYAASSLRSGVPSRFSGSGSGTDFTLTISSLQPEDFATYYCQQYSNYPLTFGGGTRVEIKR | 0.00339 s⁻¹ | 56200 M⁻¹ s⁻¹ | – | – | –
5 | LIBC681593-1: further VK1 LC-optimized affinity-matured variant (antibody, V domains shown) VH: QVQLQESGPGLVKPSQTLSLTCTVSGGSIRRGGDYWAWIRQHPGKGLEWIGHIYQTGSTNYNPRFKGRATISVNTYKNQFSLKLSSVTAADTAVYYCARNYDTLTGYSYYYYGMDVWGQGTTVTVSS VL: DIQMTQSPSSLSASVGDRVTITCRASQSISSYLNWYQQKPGKAPKLLIYNARRLGSGVPSRFSGSGSGTDFTLTISSLQPEDFATYYCQQYRSSPVTFGGGTKVEIKR | – | – | 0.72 | – | –
6 | LIBC673952-1: further cognate affinity-matured variant; HV SEQ ID NO: 368, LV SEQ ID NO: 367; 52777 in YTE format (antibody, V domains shown, YTE Fc format, 52777 in YTE format) VH: QVQLQESGPGLVKPSQTLSLTCTVSGGSIRRGGDYWSWIRQHPGKGLEWIGHVYYTGQTTYNPSFRGRVTISVNTYKNQFSLKLSSVTAADTAVYYCARDYDILTGYSYYYYGLDVWGQGTTVTVSS VL: DIVMTQSPLSLPVTPGEPASISCRSSQSLLHRSGYNYLDWYLQKPGQSPQLLIYQGSNRASGVPDRFSGSGSGTDFTLKISRVEAEDVGVYYCRQARALPRTFGQGTKVEIKR | – | – | – | 0.59 | average daily food intake [1]: did not change significantly; body weight of the animals [1]: reduced body weight
7 | LIBC674229-1: further cognate affinity-matured variant (antibody, V domains shown) VH: QVQLQESGPGLVKPSQTLSLTCTVSGGSIRRGGDYWSWIRQHPGKGLEWIGHIYQTGQTKYNPSFKGRVRISVNTYKNQFSLKLSSVTAADTAVYYCARGYDVSGYSYYYYGMDVWGQGTTVTVSS VL: DIVMTQSPLSLPVTPGEPASISCRSSQSLLHRSGYNYLDWYLQKPGQSPQLLIYQGSNRASGVPDRFSGSGSGTDFTLKISRVEAEDVGVYYCMQSLQTPRTFGQGTKVEIKR | – | – | – | 0.80 | –
8 | LIBC680812-1: further VK1 LC-optimized affinity-matured variant (antibody, V domains shown) VH: QVQLQESGPGLVKPSQTLSLTCTVSGGSIRRGGDYWGWIRQHPGKGLEWIGHVYQTGSTKYNPSFKDRATISVNTYKNQFSLKLSSVTAADTAVYYCARNYDTLTGYSYYYYGMDVWGQGTTVTVSS VL: DIQMTQSPSSLSASVGDRVTITCRASQSISSYLNWYQQKPGKAPKLLIYSARRLSSGVPSRFSGSGSGTDFTLTISSLQPEDFATYYCQQYRSYPITFGGGTKVEIKR | – | – | 0.59 | – | –
9 | LIBC527814-1: LC-swapped affinity-matured 10D10 variant; HV SEQ ID NO: 236, LV SEQ ID NO: 235 (antibody, V domains shown) VH: QVQLQESGPGLVKPSQTLSLTCTVSGGSIRRGGDYWGWIRQHPGKGLEWIGHVYQTGSTKYNPSFKDRATISVNTYKNQFSLKLSSVTAADTAVYYCARNYDTLTGYSYYYYGMDVWGQGTTVTVSS VL: DIQMTQSPSTLSASVGDRVTITCRASQSISNYLNWYQQKPGKAPKLLIYAASSLHSGVPSRFSGSGSGTDFTLTISSLQPEDFASYYCQQYQSYPLTFGQGTKVEIKR | 0.00198 s⁻¹ | 56600 M⁻¹ s⁻¹ | – | – | –
10 | LIBC674200-1: further cognate affinity-matured variant (antibody, V domains shown) VH: QVQLQESGPGLVKPSQTLSLTCTVSGGSIRRGGDYWSWIRQHPGKGLEWIGHVYYTGQTAYNPNFRNRVRISVNTYKNQFSLKLSSVTAADTAVYYCARGYDVSGYSYYYYGMDVWGQGTTVTVSS VL: DIVMTQSPLSLPVTPGEPASISCRSSQSLLHRSGYNYLDWYLQKPGQSPQLLIYLGSNRASGVPGRFSGSGSGTDFTLKISRVEAEDVGVYYCMQSLQTPRTFGQGTKVEIKR | – | – | – | 0.79 | –
11 | LIBC523661-1: cognate affinity-matured 10D10 variant; HV SEQ ID NO: 98, LV SEQ ID NO: 97 (antibody, V domains shown) VH: QVQLQESGPGLVKPSQTLSLTCTVSGGSIRRGGDYWSWIRQHPGKGLEWIGHIYYEGSTKYNPSFKGRATISVNTYKNQFSLKLSSVTAADTAVYYCARDYDPVTGHSYYYYGMDVWGQGTTVTVSS VL: DIVMTQSPLSLPVTPGEPASISCRSSQSLLTSSGYNYVDWYLQKPGQSPQLLIYQGSNRASGVPDRFSGSGSGTDFTLKISRVEAEDVGVYYCRQARAIPRTFGQGTKVEIKR | 0.00275 s⁻¹ | 35700 M⁻¹ s⁻¹ | – | – | –
12 | LIBC674090-1: further cognate affinity-matured variant (antibody, V domains shown) VH: QVQLQESGPGLVKPSQTLSLTCTVSGGSIRRGGDYWSWIRQHPGKGLEWIGHIYYAGSTAYNPNFRGRVRISVNTYKNQFSLKLSSVTAADTAVYYCARGYDTSGYSYYYYGLDVWGQGTTVTVSS VL: DIVMTQSPLSLPVTPGEPASISCRSSQSLLHRSGYNYLDWYLQKPGQSPQLLIYQGSNRASGVPDRFSGSGSGTDFTLKISRVEAEDVGVYYCMQSLQTPRTFGQGTKVEIKR | – | – | – | 0.74 | –
13 | LIBC680574-1: further VK1 LC-optimized variant; HV SEQ ID NO: 460, LV SEQ ID NO: 459; 52778 in YTE format (antibody, V domains shown, YTE Fc format, further VK1 LC-optimized variant; 52778 in YTE format) VH: QVQLQESGPGLVKPSQTLSLTCTVSGGSIRRGGDYWAWIRQHPGKGLEWIGHVYYTGSTKYNPSFKDRATISVNTYKNQFSLKLSSVTAADTAVYYCARNYDTLTGYSYYYYGMDVWGQGTTVTVSS VL: DIQMTQSPSSLSASVGDRVTITCRASQSISSYLNWYQQKPGKAPKLLIYGARRLGSGVPSRFSGSGSGTDFTLTISSLQPEDFATYYCQQYSSLPVTFGGGTKVEIKR | – | – | 0.56 | – | average daily food intake [1]: did not change significantly; body weight of the animals [1]: reduced body weight
